Data set [1] deals with the molecule itself. The data set is described as follows: SEC-MALS; Shodex KW803 column, 20 mM citrate buffer pH 3.6, 150 mM NaCl; protein injected at 4 mg/mL (121 uM).
Data set [2] deals with the molecule itself. The data set can be described thus: SEC-MALS; Shodex KW803 column, 20 mM Hepes pH 7.4, 100 mM NaCl; protein injected at 4 mg/mL (121 uM).

Results on one protein are retold here after publication PMC3466262, “Crystal Structure of ATV^ORF273, a New Fold for a Thermo- and Acido-Stable Protein from the Acidianus Two-Tailed Virus” (PLoS ONE, 2012).

B1: ATV^ORF273, virion protein of the Acidianus two-tailed virus (recombinant, C-terminal hexa-histidine tag) (natural protein)
chain: MGEKITEEREFQSISEIPEEEIDATNDEEKLADIVENEIEKEIRKSKTRKCKTIENFYYYILRDGKIYPASDYDIEVEKGKRSANDIYAFVETDVTRDFDEFLFDIDYGLPSISDILKFYLEKAGFRIANEVPTPNLKYYIHAVVEFGEDRPQYLAVNIYDIDSLARALRIPQIVEQKLGNKPRTITADEFNDIERIVAEEQPILAGYTYDEALRIPYHYYVDHNNSFKDDALKIAHAYLQLFPTPYQVCYEWKARWFNKIDCLKLERLKPSS
notes: ATV ORF273, virion protein of Acidianus two-tailed virus, UniProt Q3V4T6; native molar mass 32154 Da, recombinant protein 32977 Da; The printed masses (32154 Da native, 32977 Da recombinant) fit the whole ORF plus a His6 tag that is still on the protein; no cleavage of the tag is described; Oligomeric state depends on pH: tetramer at pH 7.4 and 8.5, dimer at pH 3.6; The models hold residues …
With B1, the results for the “stoichiometry N” value in data set [1] and in data set [2] were 2 and 4, respectively.
